From article PMC10957929

Target: T1, GST-DRG9Nip (Oryza sativa ssp. japonica cv. Nipponbare) (UniProt Q69P58)
T1 sequence: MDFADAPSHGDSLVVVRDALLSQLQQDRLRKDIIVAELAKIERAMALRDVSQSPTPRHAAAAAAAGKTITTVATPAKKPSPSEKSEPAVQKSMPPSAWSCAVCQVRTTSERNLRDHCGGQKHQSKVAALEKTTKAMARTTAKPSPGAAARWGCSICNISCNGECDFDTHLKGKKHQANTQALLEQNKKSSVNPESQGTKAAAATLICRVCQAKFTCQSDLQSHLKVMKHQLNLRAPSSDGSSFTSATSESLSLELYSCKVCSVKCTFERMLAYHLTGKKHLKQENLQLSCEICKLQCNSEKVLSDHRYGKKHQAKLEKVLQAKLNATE
Experiment: EMSA
Conditions: 20 mM Hepes pH 7.5, 20 mM KCl2 (so in the source), 1 mM MgCl2, 10 mM ZnCl2, 5 mM DTT, 10% glycerol, 0.1% NP-40, room temperature, 1 h; 6% native PAGE, 0.5x TBE

For “GGGCUCAAAUUAAUUAGCCAGUGAAAAAUCAAAUUACAGAGUUGCUUAAUUUUUUUACUAGUAGAACGCAACAGUAAAAAGAAUUAACAGCAGUGAAUUAUUAGUUAAUUAGCUAGGGAGUUGAAAUAGUUUAGCGGUCAUGCACUACUGAUUUUUAAUUAGUGCAGACAACGACCGCGUGUGUGUAUAUGCAUGUAUACCUUUUACUGUAUCUUCAGAUUGUGUAUAUAUAUCAUAUAUGUACAGGAAAAGAUUUAUAUAUCAUACAUAUUUUGUUGU [OsNCED4 3'-UTR RNA]”, the binding was “binds”.
